Data set [1] deals with the molecule itself. Briefly: FRET or BRET; donor- and acceptor-labeled cGAS^FL with 72-bp dsDNA, with or without Mn^2+ and/or Apcpp/Gpcpp (Supplementary Figure S2A). On the technique in general: Bioluminescence resonance energy transfer reports proximity on the nanometre scale.
Data set [2] concerns the molecule itself. Briefly: SEC; size-exclusion chromatography of cGAS^FL variants (Supplementary Figure S2B). A general note: Size exclusion chromatography separates by hydrodynamic size, large species first.

B1: TAMRA- or Cy5-labeled cGAS^FL (1:1 mixture of donor- and acceptor-labeled populations) (enzyme, human, UniProt Q8N884 2-522, looked up)
chain: QPWHGKAMQRASEAGATAPKASARNARGAPMDPTESPAAPEAALPKAGKFGPARKSGSRQKKSAPDTQERPPVRATGARAKKAPQRAQDTQPSDATSAPGAEGLEPPAAREPALSRAGSCRQRGARCSTKPRPPPGPWDVPSPGLPVSAPILVRRDAAPGASKLRAVLEKLKLSRDDISTAAGMVKGVVDHLLLRLKCDSAFRGVGLLNTGSYYEHVKISAPNEFDVMFKLEVPRIQLEEYSNTRAYYFVKFKRNPKENPLSQFLEGEILSASKMLSKFRKIIKEEINDIKDTDVIMKRKRGGSPAVTLLISEKISVDITLALESKSSWPASTQEGLRIQNWLSAKVRKQLRLKPFYLVPKHAKEGNGFQEETWRLSFSHIEKEILNNHGKSKTCCENKEEKCCRKDCLKLMKYLLEQLKERFKDKKHLDKFSSYHVKTAFFHVCTQNPQDSQWDRKDLGLCFDNCVTYFLQCLRTEKLENYFIPEFNLFSSNLIDKRSKEFLTKQIEYERNNEFPVFDEF
modifications: TAMRA or Cy5 label (site not stated)
As for B1, the binding result in data set [1] is “binds”.

B2: K173E/R176E-cGAS^FL (enzyme, human, UniProt Q8N884 2-522, looked up)
chain: QPWHGKAMQRASEAGATAPKASARNARGAPMDPTESPAAPEAALPKAGKFGPARKSGSRQKKSAPDTQERPPVRATGARAKKAPQRAQDTQPSDATSAPGAEGLEPPAAREPALSRAGSCRQRGARCSTKPRPPPGPWDVPSPGLPVSAPILVRRDAAPGASKLRAVLEKLELSEDDISTAAGMVKGVVDHLLLRLKCDSAFRGVGLLNTGSYYEHVKISAPNEFDVMFKLEVPRIQLEEYSNTRAYYFVKFKRNPKENPLSQFLEGEILSASKMLSKFRKIIKEEINDIKDTDVIMKRKRGGSPAVTLLISEKISVDITLALESKSSWPASTQEGLRIQNWLSAKVRKQLRLKPFYLVPKHAKEGNGFQEETWRLSFSHIEKEILNNHGKSKTCCENKEEKCCRKDCLKLMKYLLEQLKERFKDKKHLDKFSSYHVKTAFFHVCTQNPQDSQWDRKDLGLCFDNCVTYFLQCLRTEKLENYFIPEFNLFSSNLIDKRSKEFLTKQIEYERNNEFPVFDEF
On to B2, for which, in data set [2], the stoichiometry N (commonly the number of molecules, sites or subunits per partner or assembly) amounted to 2.

B3: human full-length cGAS (cGAS^FL), wild-type (enzyme, UniProt Q8N884 2-522, looked up)
chain: QPWHGKAMQRASEAGATAPKASARNARGAPMDPTESPAAPEAALPKAGKFGPARKSGSRQKKSAPDTQERPPVRATGARAKKAPQRAQDTQPSDATSAPGAEGLEPPAAREPALSRAGSCRQRGARCSTKPRPPPGPWDVPSPGLPVSAPILVRRDAAPGASKLRAVLEKLKLSRDDISTAAGMVKGVVDHLLLRLKCDSAFRGVGLLNTGSYYEHVKISAPNEFDVMFKLEVPRIQLEEYSNTRAYYFVKFKRNPKENPLSQFLEGEILSASKMLSKFRKIIKEEINDIKDTDVIMKRKRGGSPAVTLLISEKISVDITLALESKSSWPASTQEGLRIQNWLSAKVRKQLRLKPFYLVPKHAKEGNGFQEETWRLSFSHIEKEILNNHGKSKTCCENKEEKCCRKDCLKLMKYLLEQLKERFKDKKHLDKFSSYHVKTAFFHVCTQNPQDSQWDRKDLGLCFDNCVTYFLQCLRTEKLENYFIPEFNLFSSNLIDKRSKEFLTKQIEYERNNEFPVFDEF
With B3, in data set [2], the “stoichiometry N” value was 2.
